Kd and IC50 data for 22 sequences are collected here from the Immune Epitope Database (IEDB).

For experiment [1], the target named is HLA-B*08:01. The experiment is described as follows: IEDB peptide-MHC binding, purified MHC/competitive/radioactivity; filed as Kd, often an IC50 or EC50 that approximates it; ≥ and ≤ were set here for values at or beyond the usual limits of such assays. As to conditions: source organism: Dengue virus 3 Singapore/8120/1995.
For experiment [2], the target named is HLA-A*02:01. The experiment is described as above.
In experiment [3] the target is HLA-A*02:17. Described as above.
Experiment [4] has as its target HLA-B*45:06. The experiment is described as follows: IEDB peptide-MHC binding, purified MHC/competitive/fluorescence; filed as Kd, often an IC50 or EC50 that approximates it; ≥ and ≤ were set here for values at or beyond the usual limits of such assays.
Experiment [5] deals with HLA-B*15:42. The description is as above.
For experiment [6], the target named is HLA-A*31:01. The experiment is described as above.
In experiment [7] the target is HLA-A*03:01. Put plainly: IEDB peptide-MHC binding, purified MHC/direct/fluorescence; filed as Kd, often an IC50 or EC50 that approximates it; ≥ and ≤ were set here for values at or beyond the usual limits of such assays.
In experiment [8] the target is HLA-A*11:01. The description is as above.
The target of experiment [9] is HLA-A*11:01. Put plainly: IEDB peptide-MHC binding, purified MHC/competitive/fluorescence; ≥ and ≤ were set here for values at or beyond the usual limits of such assays.
For experiment [10], the target named is HLA-A*02:03. Put plainly: IEDB peptide-MHC binding, purified MHC/competitive/radioactivity; filed as Kd, often an IC50 or EC50 that approximates it; ≥ and ≤ were set here for values at or beyond the usual limits of such assays.
Experiment [11] deals with HLA-A*68:02. The description is as above.
In experiment [12] the target is HLA-A*02:06. Described as above.
In experiment [13] the target is HLA-A*68:01. The experiment is described as above. As to conditions: source organism: Dengue virus 2 Jamaica/1409/1983.
In experiment [14] the target is HLA-B*15:09. The experiment is described as follows: IEDB peptide-MHC binding, purified MHC/direct/fluorescence; filed as Kd, often an IC50 or EC50 that approximates it; ≥ and ≤ were set here for values at or beyond the usual limits of such assays. As to conditions: source organism: Burkholderia mallei ATCC 23344.
Experiment [15] addresses HLA-A*69:01. The experiment is described as follows: IEDB peptide-MHC binding, purified MHC/competitive/fluorescence; filed as Kd, often an IC50 or EC50 that approximates it; ≥ and ≤ were set here for values at or beyond the usual limits of such assays.
Experiment [16] deals with HLA-B*15:01. The experiment is described as above. To be noted: source organism: Homo sapiens.
Experiment [17] deals with HLA-B*39:01. The description is as above.
The target in experiment [18] is HLA-B*18:01. The description is as above.
The target in experiment [19] is HLA-B*51:01. The experiment is described as above.
Experiment [20] has as its target HLA-B*57:01. The experiment is described as above.
Experiment [21] addresses HLA-B*27:03. The experiment is described as above.
Experiment [22] deals with HLA-A*26:01. The description is as above.
Experiment [23] has as its target HLA-B*15:17. The experiment is described as above.
In experiment [24] the target is HLA-B*46:01. Described as above.
For experiment [25], the target named is HLA-A*02:01. The experiment is described as follows: IEDB peptide-MHC binding, purified MHC/direct/fluorescence; filed as Kd, often an IC50 or EC50 that approximates it; ≥ and ≤ were set here for values at or beyond the usual limits of such assays. As to conditions: source organism: Tetraodon nigroviridis.
In experiment [26] the target is HLA-A*02:01. Put plainly: IEDB peptide-MHC binding, purified MHC/competitive/fluorescence; filed as Kd, often an IC50 or EC50 that approximates it; ≥ and ≤ were set here for values at or beyond the usual limits of such assays. To be noted: source organism: Escherichia coli 536.
Experiment [27] has as its target HLA-A*03:01. The experiment is described as above.
Experiment [28] addresses HLA-B*83:01. The description is as above. To be noted: source organism: human gammaherpesvirus 4.
In experiment [29] the target is HLA-A*02:01. The experiment is described as follows: IEDB peptide-MHC binding, purified MHC/competitive/fluorescence; ≥ and ≤ were set here for values at or beyond the usual limits of such assays. To be noted: source organism: Sudan ebolavirus.
Experiment [30] deals with HLA-A*24:02. Described as above. As to conditions: source organism: Sudan ebolavirus.
Setting [31] is: source organism: Dengue virus 3 China/80-2/1980.
Setting [32] is: source organism: Yersinia pestis FV-1.
Setting [33] is: source organism: Yersinia pestis.
The mark [34] stands for this setting: source organism: Dengue virus 2 Thailand/NGS-C/1944.
Where [35] appears, read: source organism: West Nile virus.
The mark [36] stands for this setting: source organism: Dengue virus 2 Jamaica/1409/1983.
[37] abbreviates: source organism: Influenza A virus (A/Viet Nam/HN/2004(H5N1)).
The mark [38] stands for this setting: source organism: Dengue virus 3 Singapore/8120/1995.
Setting [39] is: source organism: Dengue virus 4 Dominica/814669/1981.
Setting [40] is: source organism: Sudan ebolavirus.
Setting [41] is: source organism: Escherichia coli 536.
The mark [42] stands for this setting: source organism: Bacillus cereus G9241.
Setting [43] is: source organism: human gammaherpesvirus 4.
Setting [44] is: source organism: Influenza A virus (A/Memphis/1/1978(H1N1)).
Where [45] appears, read: source organism: Dengue virus 1 Singapore/S275/1990.
Where [46] appears, read: source organism: Dengue virus 1 Brazil/97-11/1997.
Where [47] appears, read: source organism: Coxiella burnetii.

For orientation: Kd means the equilibrium constant for the complex coming apart. As to GMLWMADVPL, the Kd came to 1420 nM in [1], 4.89 nM in experiment [2] (setting [31]) and 65.3 nM in experiment [3] (setting [31]).

As to SVQWFRLPR, the dissociation constant Kd in experiment [4] (setting [32]) is at least 5000 nM; in experiment [5] (setting [32]), at least 5000 nM; in experiment [6] (setting [32]), at most 0.1 nM; in experiment [7] (setting [33]), 582 nM; in experiment [8] (setting [33]) it was at most 1 nM.

As a reminder, the IC50 is the point on the concentration scale where inhibition reaches its midpoint. High values mean weaker potency, low ones greater potency. Consider ISKSMRDQR, for which, in experiment [9] (source organism: Variola virus), the IC50 turned out to be 23300 nM.

For the sequence LMMTTIGIV, the Kd in experiment [2] (setting [34]) stood at 5.88 nM; in experiment [3] (setting [34]), 183 nM; in [10] (source organism: Dengue virus 2 Peru/IQT2913/1996), 0.9 nM.

Consider VLRKRWTAK, for which the Kd in experiment [6] (setting [35]) is 58.6 nM; in experiment [8] (setting [35]), at least 20000 nM.

For LVISGVFPV, the equilibrium dissociation constant (Kd) came out at 29.3 nM in experiment [2] (setting [36]); 0.37 nM in experiment [11] (setting [36]); 1.96 nM in [3] (setting [36]); 1.65 nM in experiment [12] (setting [36]); 14.1 nM in [10] (setting [36]).

Turning to GTFGPVHFR, the figures for the Kd in experiment [6] (source organism: Influenza A virus H3N2), in experiment [7] (setting [37]) and in [8] (setting [37]) were at most 1 nM, 26 nM and 1.6 nM, respectively.

Turning to FVGKTVWFV, the Kd in experiment [2] (setting [31]) came to 4.65 nM; in [11] (setting [38]) it was 1.85 nM; in [3] (setting [31]) it was 28.7 nM; in [12] (setting [38]), 8.76 nM.

On to TVNPIVTEK, for which the figures for the dissociation constant Kd in experiment [6] (source organism: dengue virus type 2), in experiment [8] (source organism: Dengue virus) and in [13] were 14500 nM, 2.3 nM and 26.5 nM, respectively.

LSMGLITIAV: the Kd in experiment [2] (setting [39]) amounted to 79.6 nM; in experiment [11] (setting [39]), 78.7 nM; in [3] (setting [39]), 2410 nM; in experiment [12] (setting [39]), 30.5 nM.

The sequence GEELPTVVL yielded an equilibrium dissociation constant (Kd) in [14] of at least 20000 nM.

For FMDPGIFPR, the Kd in [15] (source organism: Homo sapiens), in experiment [16], in experiment [17] (source organism: Homo sapiens), in experiment [18] (source organism: Homo sapiens), in experiment [19] (source organism: Homo sapiens) and in experiment [20] (source organism: Homo sapiens) was at least 20000 nM throughout. Further, the Kd in experiment [21] (source organism: Homo sapiens) is at least 20000 nM; in experiment [22] (source organism: Homo sapiens), at least 20000 nM; in experiment [23] (source organism: Homo sapiens), at least 20000 nM; in experiment [24] (source organism: Homo sapiens), at least 20000 nM; in experiment [25] it was 9.9 nM.

SATKRWGFR displayed a half-inhibitory concentration (IC50) in experiment [9] (setting [40]) of at least 119000 nM.

Consider RAMDVYCHR, for which the Kd in experiment [15] (setting [41]), in experiment [17] (setting [41]), in experiment [18] (setting [41]), in experiment [19] (setting [41]), in experiment [26] and in experiment [20] (setting [41]) was at least 20000 nM in each case. In addition, the Kd in [21] (setting [41]), in experiment [22] (setting [41]), in [23] (setting [41]) and in experiment [24] (setting [41]) was at least 20000 nM in each case.

MLYDRINLR: the Kd in experiment [27] (setting [42]) was found to be 10.7 nM; in experiment [6] (setting [42]), 3.4 nM.

For the sequence SQAAFGLPI, the results for the dissociation constant (Kd) in experiment [4] (setting [43]), in experiment [5] (setting [43]) and in experiment [28] were 600 nM, at least 5000 nM and at least 5000 nM, respectively.

For AIDFLLRRW, the results for the IC50 in experiment [29], in [30] and in [9] (setting [40]) were 55200 nM, 38700 nM and at least 156000 nM, respectively.

With RLFKHGLKR, the Kd in [27] (setting [44]) was 7.9 nM; in experiment [6] (setting [44]) it was 14.5 nM.

As for FGGFSTLDK, in experiment [9] (source organism: Variola virus), the IC50 is at least 77700 nM.

Take LVMAFIAFL: the dissociation constant (Kd) in [2] (setting [45]) turned out to be 40.1 nM; in [11] (setting [46]), 21 nM; in experiment [3] (setting [45]), 15.4 nM; in [12] (setting [46]) it was 14.3 nM.

Regarding SQIRRFNLR, the Kd in experiment [6] (source organism: Pseudomonas putida F1) stood at 1.02 nM; in experiment [7] (setting [47]), 1230 nM; in [8] (setting [47]), 13.6 nM.

In the case of TTPMMIQTR, in experiment [9] (source organism: Vaccinia virus), the concentration for half-maximal inhibition (IC50) was found to be 46100 nM. That is a double-digit micromolar value.
